Test results taken from PMC7919490, “Effect of C-terminus Conjugation via Different Conjugation Chemistries on In Vivo Activity of Albumin-Conjugated Recombinant GLP-1” (Pharmaceutics, 2021).

Assays:
[1] = cited from earlier work
Source text: Although GLP-1 exerts significant effects in an individual’s body, its short half-life is a significant drawback. Many studies have been conducted in effort to overcome the hurdles of GLP-1 and to develop it as a medication. Traditional efforts to increase the size of small therapeutic proteins have included polyethylene glycol (PEG) conjugation. […] The in vitro activity of GLP1_8A37C-HSA was greater than that of GLP1_8G37C-HSA, probably due to the alanine to glycine change at position 8 (A8G) affecting the interactions with GLP-1R. […] Despite the low EC50 value of GLP1_ ...

GLP-1 receptor (GLP-1R) = GLP-1 receptor (GLP-1R) (UniProt P43220)
GLP-1 receptor (GLP-1R), sequence (P43220 24-463): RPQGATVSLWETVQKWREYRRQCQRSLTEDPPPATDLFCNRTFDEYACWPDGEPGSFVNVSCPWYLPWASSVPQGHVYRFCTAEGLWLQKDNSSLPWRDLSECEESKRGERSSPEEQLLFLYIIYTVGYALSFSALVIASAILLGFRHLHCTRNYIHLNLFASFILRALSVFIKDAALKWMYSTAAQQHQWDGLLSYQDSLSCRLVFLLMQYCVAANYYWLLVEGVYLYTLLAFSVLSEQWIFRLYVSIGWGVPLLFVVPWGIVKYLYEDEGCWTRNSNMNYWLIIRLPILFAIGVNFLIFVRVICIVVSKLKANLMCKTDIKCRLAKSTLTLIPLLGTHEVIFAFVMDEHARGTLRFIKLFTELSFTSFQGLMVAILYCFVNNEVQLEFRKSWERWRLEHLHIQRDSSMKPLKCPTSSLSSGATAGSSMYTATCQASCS

GLP-1R = biological target: T1, GLP-1R (Homo sapiens, UniProt P43220); assay: In vitro activity assay: cAMP production by GLP-1R-overexpressing HEK-293 cells; type: cell-based; conditions: HEK293 cells transfected with pcDNA3.1-GLP-1R_tango; 15 min exposure; cAMP Parameter Assay Kit; normalized to cAMP with 1 μM GLP1_C; dose-response fit in OriginPro; n = 3/group
T1 construct: Tango fusion cassette (named only as '_tango' in the plasmid name); host or cells: HEK293 (ATCC), transiently transfected
T1 sequence (P43220 24-463): as above
Protocol: The plasmid pcDNA3.1-GLP-1R_tango (Addgene, Cambridge, MA, USA) and transfection reagent were then mixed in serum-free medium for 20 min, in accordance with the manufacturer’s recommendation. […] The levels of cAMP in the cell lysate were measured using the cAMP Parameter Assay Kit following the manufacturer’s protocol. […] The half maximal effective concentrations (EC50) of each curve were estimated from a dose–response curve using OriginPro software. Absorbance at 450 nm was monitored using a Varioskan Lux microplate reader (Thermo Fisher Scientific).

CC[C@H](C)[C@H](NC(=O)[C@H](Cc1ccccc1)NC(=O)[C@H](CCC(=O)O)NC(=O)[C@H](CCCCN)NC(=O)[C@H](C)NC(=O)[C@H](C)NC(=O)[C@H](CCC(N)=O)NC(=O)CNC(=O)[C@H](CCC(=O)O)NC(=O)[C@H](CC(C)C)NC(=O)[C@H](Cc1ccc(O)cc1)NC(=O)[C@H](CO)NC(=O)[C@H](CO)NC(=O)[C@@H](NC(=O)[C@H](CC(=O)O)NC(=O)[C@H](CO)NC(=O)[C@@H](NC(=O)[C@H](Cc1ccccc1)NC(=O)[C@@H](NC(=O)CNC(=O)[C@H](CCC(=O)O)NC(=O)[C@H](C)NC(=O)[C@@H](N)Cc1c[nH]cn1)[C@@H](C)O)[C@@H](C)O)C(C)C)C(=O)N[C@@H](C)C(=O)N[C@@H](Cc1c[nH]c2ccccc12)C(=O)N[C@@H](CC(C)C)C(=O)N[C@H](C(=O)N[C@@H](CCCNC(=N)N)C(=O)NCC(=O)N[C@@H](CCCNC(=N)N)C(=O)NCC(=O)O)C(C)C [GLP1_C]
plasma half-life ([1]; in animal): only a few minutes in animal

GLP1_8A37C-HSA (from UniProt P02768 25-609)
EC50 of cAMP production by GLP-1R-overexpressing HEK-293 cells (GLP-1 receptor (GLP-1R)): 0.185 µM

GLP1_8A37C-HSA: GLP1-HSA conjugate with alanine at position 8 and albumin at its C-terminus (HAEGTFTSDVSSYLEGQAAKEFIAWLVRGRC; not fully specified; GLP-1(7-37), Ala8 kept, G37C; Cys37 is joined through TET-PEG4-maleimide / TCO-maleimide (IEDDA) to Cys34 of human serum albumin (carrier, UniProt P02768 25-609, not included))
EC50 (GLP-1R): 0.185 µM

GLP1_8G16AzF-HSA: GLP1-HSA conjugate generated by HSA conjugation to position 16 of GLP-1 via SPAAC (HGEGTFTSDFSSYLEGQAAKEFIAWLVRGRG; not fully specified; GLP-1(7-37) A8G; Residue 16 (entry position 10) is p-azido-L-phenylalanine, written as parent Phe, joined by SPAAC through DBCO-PEG4-maleimide to Cys34 of human serum albumin (carrier, UniProt P02768)
EC50 (GLP-1R): 1.11 µM

GLP1_8G37C-HSA (from UniProt P02768 25-609)
EC50 of cAMP production by GLP-1R-overexpressing HEK-293 cells (GLP-1 receptor (GLP-1R)): 1.34 µM

GLP1_8G37C-HSA: GLP1-HSA conjugate, HSA conjugated to GLP1_8G37C via Michael addition and IEDDA (HGEGTFTSDVSSYLEGQAAKEFIAWLVRGRC; not fully specified; GLP-1(7-37) A8G, G37C; Cys37 is joined through TET-PEG4-maleimide / TCO-maleimide (IEDDA) to Cys34 of human serum albumin (carrier, UniProt P02768 25-609, not included); K34R is inferred from the expe)
EC50 (GLP-1R): 1.34 µM

Glucagon-like peptide-1 [GLP-1]
half-life in the body ([1]; reported, reference not given): 2 to 3 min
